± gives the standard deviation of the averaged measurements.
test system: ATP; experiment: switch fluorescence ratio, 500 uM ATP over buffer (Cy3 cluster intensity, sum of 5 cycles each) (fold (ratio)); higher = stronger signal-on switching upon ATP binding; sequences stand for … in TCGTCGGCAGCGTCAGATGTGTATAAGAGACAGTTTTTTTTTTTTTTTTTTTTTTTTT…TC; conditions: aptamer strand: ATP DNA aptamer (quencher-CACCTGGGGGAGTATTGCGGAGGAAGG + anchor), 100 nM annealed; ATP concentration: 500 uM
Outline: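 Imaging in selection buffer was followed by imaging after 15 min with 500 uM ATP at 22 °C, for Cy3-labelled switching-strand clusters annealed to 100 nM quencher-labelled ATP aptamer on a modified Illumina MiSeq flow-cell. Five of these buffer/ATP cycles ran, separated by NaOH stripping and re-annealing. The fluorescence ratio per cluster is summed target-cycle over summed buffer-cycle Cy3 intensity, averaged per switch-domain sequence; clusters outside 100-1000 RFU were removed.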
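Note: ATP exposure 15 min at 22 °C before imaging.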

Row | Sequence | switch fluorescence ratio
1 | GGGAACACGA | 1.01 ± 0.018
2 | GGGAAGAACC | 1.02 ± 0.013
3 | GGGAAGACCG | 0.9921 ± 0.004
4 | GGGAAGAGGT | 0.988 ± 0.027
5 | GGGAAGGAAG | 1.04 ± 0.04
6 | GGGAAGGAGG | 1.02 ± 0.013
7 | GGGAAGTCAG | 1.002 ± 0.0098
8 | GGGAATCATG | 0.971 ± 0.044
9 | GGGAATCATT | 0.948 ± 0.034
10 | GGGAATCCTT | 1.03 ± 0.0018
11 | GGGAATCGGC | 1 ± 0.032
12 | GGGAATCGGG | 1 ± 0.019
13 | GGGAATGGAA | 0.995 ± 0.014
14 | GGGAATGGTC | 1.01 ± 0.043
15 | GGGAATGTAA | 0.973 ± 0.036
16 | GGGAATTAAG | 0.989 ± 0.032
17 | GGGAATTAAT | 1.04 ± 0.023
18 | GGGAATTTTA | 1.01 ± 0.012
19 | GGGACAAACC | 1.02 ± 0.019
20 | GGGACACGGT | 0.987 ± 0.023
21 | GGGACATTCA | 1.03 ± 0.023
22 | GGGACCCAGC | 0.992 ± 0.039
23 | GGGACCTGCT | 0.951 ± 0.02
24 | GGGACGTGTG | 1.007 ± 0.0068
25 | GGGACTTTGG | 0.972 ± 0.018
26 | GGGAGAAAGT | 0.9995 ± 0.0034

Row | Sequence | switch fluorescence ratio
27 | GGGAGAATTA | 1.037 ± 0.0022
28 | GGGAGATATT | 0.985 ± 0.0099
29 | GGGAGATTGG | 1.09 ± 0.12
30 | GGGAGCACTA | 1.09 ± 0.017
31 | GGGAGCCCTC | 0.9958 ± 0.0055
32 | GGGAGCGCGT | 1.02 ± 0.056
33 | GGGAGCTAGG | 0.9709 ± 0.0038
34 | GGGAGGAAGA | 1.01 ± 0.03
35 | GGGAGGCCAT | 0.9683 ± 0.0076
36 | GGGAGGCTTC | 1 ± 0.021
37 | GGGAGGGAAG | 1.03 ± 0.031
38 | GGGAGGGACC | 1.01 ± 0.011
39 | GGGAGGGAGC | 1.02 ± 0.06
40 | GGGAGGGCAT | 1 ± 0.027
41 | GGGAGGGGCA | 0.971 ± 0.012
42 | GGGAGGGTAT | 1.01 ± 0.036
43 | GGGAGGGTGG | 0.996 ± 0.06
44 | GGGAGGTTCT | 0.974 ± 0.033
45 | GGGAGTGTAA | 1 ± 0.033
46 | GGGAGTTGAA | 0.9747 ± 0.0083
47 | GGGAGTTTGG | 0.975 ± 0.027
48 | GGGAGTTTTG | 1 ± 0.018
49 | GGGATAATGA | 0.977 ± 0.035
50 | GGGATAATGG | 0.968 ± 0.032
51 | GGGATACGCT | 1.03 ± 0.054
52 | GGGATACTTA | 1.02 ± 0.04

Row | Sequence | switch fluorescence ratio
53 | GGGATAGATT | 1.028 ± 0.008
54 | GGGATATGGA | 1.04 ± 0.049
55 | GGGATATTTG | 0.999 ± 0.036
56 | GGGATCATAG | 0.9961 ± 0.0072
57 | GGGATCTACA | 1.03 ± 0.024
58 | GGGATCTACG | 1.04 ± 0.026
59 | GGGATCTAGG | 0.974 ± 0.026
60 | GGGATCTCGG | 1.05 ± 0.0066
61 | GGGATCTGTT | 1.01 ± 0.019
62 | GGGATGAATG | 0.9773 ± 0.0079
63 | GGGATGACAG | 1.02 ± 0.072
64 | GGGATGCAGA | 1.05 ± 0.0076
65 | GGGATGGATT | 0.969 ± 0.047
66 | GGGATGGGCG | 1.03 ± 0.031
67 | GGGATGGGCT | 1.01 ± 0.014
68 | GGGATGGTAG | 1.01 ± 0.027
69 | GGGATGTGGG | 1 ± 0.013
70 | GGGATTACCA | 1 ± 0.056
71 | GGGATTAGCA | 0.988 ± 0.042
72 | GGGATTATCA | 1.016 ± 0.0094
73 | GGGATTATTA | 0.981 ± 0.018
74 | GGGATTCGAG | 0.987 ± 0.02
75 | GGGATTCGGA | 0.9499 ± 0.0088
76 | GGGATTGTCT | 0.948 ± 0.033
77 | GGGATTGTGT | 0.963 ± 0.055
78 | GGGATTGTT | 0.996 ± 0.033

Row | Sequence | switch fluorescence ratio
79 | GGGATTTAGG | 0.997 ± 0.035
80 | GGGATTTATG | 1.01 ± 0.036
81 | GGGATTTGG | 0.985 ± 0.015
82 | GGGATTTTGG | 0.973 ± 0.026
83 | GGGCAAAATC | 1.04 ± 0.018
84 | GGGCAAAGGA | 0.993 ± 0.011
85 | GGGCAACGGG | 1.2 ± 0.12
86 | GGGCAAGAGC | 1.04 ± 0.063
87 | GGGCAAGCGA | 1.08 ± 0.043
88 | GGGCAATAAC | 3.95 ± 0.13
89 | GGGCAATCGG | 1.75 ± 0.97
90 | GGGCACAGCA | 0.9752 ± 0.0056
91 | GGGCACTCGC | 0.999 ± 0.033
92 | GGGCAGACGT | 0.971 ± 0.063
93 | GGGCAGGTTT | 1.01 ± 0.014
94 | GGGCATATAG | 1.61 ± 0.71
95 | GGGCATTGGT | 0.991 ± 0.049
96 | GGGCCACGGA | 1.01 ± 0.048
97 | GGGCCAGGTA | 0.985 ± 0.015
98 | GGGCCATTGG | 1 ± 0.018
99 | GGGCCGGGAG | 0.984 ± 0.02
100 | GGGCCGTTTG | 1.002 ± 0.0047
101 | GGGCCTAGCG | 0.978 ± 0.019
102 | GGGCCTCGGT | 0.9914 ± 0.0087
103 | GGGCCTGAAA | 1.08 ± 0.093
104 | GGGCCTGGGA | 1.01 ± 0.012

Row | Sequence | switch fluorescence ratio
105 | GGGCCTTGGT | 0.987 ± 0.025
106 | GGGCGCATCG | 0.999 ± 0.018
107 | GGGCGCCAAA | 1.0045 ± 0.00091
108 | GGGCGCGGGA | 0.991 ± 0.015
109 | GGGCGGACAG | 0.985 ± 0.019
110 | GGGCGGGGAA | 1.03 ± 0.035
111 | GGGCGGGGCG | 0.938 ± 0.063
112 | GGGCGGGTTT | 1.005 ± 0.0026
113 | GGGCTAGGAG | 0.987 ± 0.014
114 | GGGCTAGGTA | 1.01 ± 0.0074
115 | GGGCTAGTGT | 0.963 ± 0.01
116 | GGGCTCATTT | 1.01 ± 0.021
117 | GGGCTGAGGA | 1 ± 0.036
118 | GGGCTGGAGG | 0.983 ± 0.025
119 | GGGCTGGGGC | 0.997 ± 0.11
120 | GGGCTGTCAC | 0.997 ± 0.013
121 | GGGCTGTGGG | 1.01 ± 0.022
122 | GGGCTTGGGC | 0.976 ± 0.035
123 | GGGCTTTGAG | 0.979 ± 0.038
124 | GGGGAAAATT | 0.993 ± 0.036
125 | GGGGAAAGGA | 0.9896 ± 0.0085
126 | GGGGAAATTG | 0.983 ± 0.019
127 | GGGGAACAGA | 1.02 ± 0.026
128 | GGGGAAGAAC | 1.14 ± 0.18
129 | GGGGAAGGAT | 1.05 ± 0.13
130 | GGGGAATTGT | 1.02 ± 0.056

Row | Sequence | switch fluorescence ratio
131 | GGGGACCTGG | 0.9999 ± 0.0046
132 | GGGGACCTTA | 0.993 ± 0.028
133 | GGGGACGGGG | 1 ± 0.03
134 | GGGGACGGGT | 1.01 ± 0.14
135 | GGGGAGAATA | 1.01 ± 0.026
136 | GGGGAGCGAT | 1.05 ± 0.019
137 | GGGGAGGCAT | 0.954 ± 0.027
138 | GGGGAGGGAG | 1.0077 ± 0.00081
139 | GGGGAGGGCA | 1.02 ± 0.035
140 | GGGGAGGGTC | 1.016 ± 0.0055
141 | GGGGAGGTCG | 1.03 ± 0.02
142 | GGGGAGTCTT | 0.972 ± 0.057
143 | GGGGAGTGAC | 1.025 ± 0.0086
144 | GGGGAGTGCA | 1 ± 0.035
145 | GGGGAGTTGG | 0.969 ± 0.025
146 | GGGGATACCT | 1.04 ± 0.023
147 | GGGGATAGGC | 1.01 ± 0.023
148 | GGGGATATTC | 1 ± 0.023
149 | GGGGATCAGC | 0.9912 ± 0.0036
150 | GGGGATCCAT | 1.02 ± 0.026
151 | GGGGATCGCC | 1.01 ± 0.03
152 | GGGGATCGGG | 0.965 ± 0.022
153 | GGGGATCTTA | 1 ± 0.031

— the supplement of paper PMC10126150
